Measurements reported in patent EP2270053A1 (U3 Pharma GmbH, dated 2011).

T1: human receptor tyrosine kinase AXL (human, UniProt P30530 26-894)
T1 construct: also called hAXL; human AXL on NIH3T3-AXL cl.7, Ratl-AXL cl.2, Hs578T, NCI-H292 and CaSki cells
T1 sequence: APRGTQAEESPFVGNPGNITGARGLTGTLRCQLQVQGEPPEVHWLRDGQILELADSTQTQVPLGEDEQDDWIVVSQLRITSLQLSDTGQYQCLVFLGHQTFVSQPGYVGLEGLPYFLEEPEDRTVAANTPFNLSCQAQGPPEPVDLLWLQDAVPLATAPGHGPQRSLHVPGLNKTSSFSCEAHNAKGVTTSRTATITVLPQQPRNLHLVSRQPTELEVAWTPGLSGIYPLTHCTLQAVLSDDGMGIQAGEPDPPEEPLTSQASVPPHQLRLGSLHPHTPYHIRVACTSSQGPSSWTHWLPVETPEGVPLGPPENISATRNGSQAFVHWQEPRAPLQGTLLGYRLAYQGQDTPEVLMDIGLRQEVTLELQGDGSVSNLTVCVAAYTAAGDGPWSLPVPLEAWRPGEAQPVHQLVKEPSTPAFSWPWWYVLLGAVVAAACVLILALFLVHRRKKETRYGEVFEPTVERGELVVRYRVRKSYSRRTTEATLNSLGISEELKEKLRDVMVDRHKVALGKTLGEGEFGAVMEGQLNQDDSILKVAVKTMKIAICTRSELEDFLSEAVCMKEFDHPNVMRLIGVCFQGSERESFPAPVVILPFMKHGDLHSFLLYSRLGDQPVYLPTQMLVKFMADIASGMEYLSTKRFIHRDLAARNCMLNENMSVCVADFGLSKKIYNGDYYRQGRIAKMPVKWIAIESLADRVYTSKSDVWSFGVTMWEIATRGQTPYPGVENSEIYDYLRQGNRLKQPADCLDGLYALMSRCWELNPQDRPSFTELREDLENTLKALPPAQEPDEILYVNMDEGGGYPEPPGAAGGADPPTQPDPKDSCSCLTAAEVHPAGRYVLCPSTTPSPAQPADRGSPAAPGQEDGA

B1: rat anti-human AXL monoclonal antibody #11D5 (antibody, rat IgG2a, V domains shown)
VH: EVQLQESGPGLVKPSQSLSLTCSVTGYSITSNYWGWIRKFPGNKMEWIGHITNSGNTTYNPSLKSRISISRDTSRNQFFLQLNSVTTEDTATYYCAKGAFDYWGQGVMVTVSS
VL: DIQMTQSPSSMSTSLGDRVTITCRASQDIGNYLSWFQQKVGKSPRRMIYGAIKLAVGVPSRFSGSRSGSDYSLTISSLESEDMAIYYCLQYIQFPLTFGSGTKLELKR
notes: also called III11D5
B2: chimeric anti-AXL antibody ch11D5-IgG1 (antibody, V domains shown)
VH: B1 VH
VL: B1 VL
notes: also called chm11D5; human chimeric antibody (of #11D5)
B3: rat anti-human AXL monoclonal antibody #11B7 (antibody, rat IgG1, V domains shown)
VH: EVQLQESGPGLVKPSQSLSLTCSVTGYSITSNYWGWIRKFPGDKMEWMGYITYSGSTSYNPSLKSRISITRDTSKNQFFLQLNSVTSEDTATYYCAITTFYYWGQGVMVTVSS
VL: DIQMTQAPSSLPASLGDRVTITCRASQDIGNYLRWFQQKPGKSPRLMISGATNLAAGVPSRFSGSRSGSDYSLTISSLESEDMADYYCLQSKESPWTFGGGTKLELKR
notes: also called I11B7; rat anti-Axl antibody 11B7
B4: chimeric anti-AXL antibody ch11B7-IgG1 (antibody, V domains shown)
VH: B3 VH
VL: B3 VL
notes: Rat 11B7 variable domains on human IgG1 / human kappa; also called chm11B7; chimeric anti-AXL mAb #11B7

molecular target: T1, human receptor tyrosine kinase AXL; test: FACS Scatchard, apparent KD (KDapp) on NIH3T3 cells overexpressing human AXL

Binder | Kd [nM]
B1 | 0.81
B2 | 0.4
B3 | 0.38
B4 | 0.6
